In article PMC12232886, “Multiple and Alternative Sites Make Tau Protein an Adaptable Sticky Surface for the SH3 Domain of Fyn Kinase” (Angewandte Chemie (International Ed. in English), 2025):
Like-named read-outs stand apart in the source and are kept apart here. Values belong to the substance of their own block, whether it stands above or below them.

Target: T1, Fyn-SH3 (Homo sapiens, UniProt P06241)
T1 construct: 82-143) was cloned into the pET-TEV; His-tag (TEV-cleavable, pET-TEV vector) (N, cleaved yes); made in house; host or cells: E. coli BL21(DE3)
Test: Isothermal titration calorimetry (ITC), Fyn-SH3 titrated into Tau fragments
Type: binding
Details: 20 mM potassium phosphate pH 6.8, 25 °C, error from data fitting
Text: Figure 3 ITC analysis of Fyn‐SH3 binding to Tau. ITC measurements of Fyn‐SH3 titrated into Tau fragments 151–372 (a), 151–243 (b), 151–372 Δ175–179 (c), 151–372 Δ215–219 (d), 151–372 Δ175–179 Δ215–219 (e). The upper and lower panels show the raw thermograms (DP, differential power), and the integrated heats corrected for the heat of dilution (ΔH), respectively. The blue line in the latter panels represents the fit curve. […]
Isothermal Titration Calorimetry (ITC)
For ITC measurements, purified Fyn-SH3 and Tau proteins were dialyzed overnight against 20 mM potassium phosphate buffer (pH 6.8). Concentrations of proteins were measured using a NanoDrop instrument (Thermo Fisher Scientific), by using molar extinction coefficients at 280 nm. Calorimetric titrations were carried out on a MicroCal PEAQ-ITC instrument (Malvern) at 25 °C. The sample cell contained 20 μM Tau protein and the injection syringe 0.6 mM or 1 mM solution of Fyn-SH3. Only for the Tau mutant 151-372 Δ175-179 Δ215-219, the experiment was conducted with 60 μM Tau protein in the cell and 1.2 mM SH3 in the syringe. Titrations were carried out with a preliminary 0.4 μl injection, followed by 2 μl injections with time intervals of 150 sec, with stirring rate of 500 rpm and reference power of 10 μcal/sec. A blank titration (ligand into buffer) was recorded in the same experimental conditions and the dilution heats were subtracted to the data.
Binding isotherms were analyzed with the MicroCal PEAQ-ITC analysis software, using the two-sets of sites or the one-set of sites fitting models. […]

[1] = one-set of sites model, 20 μM Tau in cell, 0.6 mM or 1 mM SH3 in syringe, read-out: Kd

T1 sequence (P06241 82-143): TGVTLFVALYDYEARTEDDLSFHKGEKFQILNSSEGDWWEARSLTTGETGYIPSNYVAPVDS

- Kd (two-sets of sites model, site I, 60 μM Tau in cell, 1.2 mM SH3 in syringe, listed as Δ175–179 Δ215–219, read-out: KdI): 10 µM
- Kd (two-sets of sites model, site I, 60 μM Tau in cell, 1.2 mM SH3 in syringe, read-out: KdI): 10.3 ± 2.2 µM
- Kd (two-sets of sites model, site II, 60 μM Tau in cell, 1.2 mM SH3 in syringe, read-out: KdII): 347 ± 79 µM
Substance: Tau 151–372 Δ175‐179 Δ215‐219: Tau 151-372 double deletion mutant lacking the PxxP motifs in HSPR1 and HSPR2

- Kd (one-set of sites model, 20 μM Tau in cell, 0.6 mM or 1 mM SH3 in syringe, listed as Δ175–179, read-out: Kd): 12 µM
- Kd [1]: 12.2 ± 5.4 µM
Substance: Tau 151–372 Δ175‐179: Tau 151-372 deletion mutant lacking the PxxP motifs in HSPR1

Further lines, the substance ahead of its results:

Substance: Tau 151–243: recombinant Tau fragment 151-243 lacking the HSPR3 and the MBD
- Kd [1]: ~12 µM

Substance: Tau 151–372 Δ215‐219: Tau 151-372 deletion mutant lacking the PxxP motifs in HSPR2
- Kd (one-set of sites model, 20 μM Tau in cell, 0.6 mM or 1 mM SH3 in syringe, listed as Tau 151–372 Δ215–219, read-out: Kd): ~12 µM
- Kd (one-set of sites model, 20 μM Tau in cell, 0.6 mM or 1 mM SH3 in syringe, listed as Δ215–219, read-out: Kd): 13 µM
- Kd [1]: 12.7 ± 4.4 µM

Substance: Tau 151–372: recombinant Tau fragment 151-372, his-tag cleaved, containing all three HSPRs
- Kd (two-sets of sites model, site I, 20 μM Tau in cell, 0.6 mM or 1 mM SH3 in syringe, read-out: KdI): 2.5 ± 1.1 µM
- Kd (two-sets of sites model, site II, 20 μM Tau in cell, 0.6 mM or 1 mM SH3 in syringe, listed as Tau151‐372, read-out: KdII): 38 µM
- Kd (two-sets of sites model, site II, 20 μM Tau in cell, 0.6 mM or 1 mM SH3 in syringe, read-out: KdII): 37.6 ± 22.7 µM
